Laboratory results taken from publication PMC8763920, “Unprotected peptide macrocyclization and stapling via a fluorine-thiol displacement reaction” (Nature Communications, 2022).
*1 amine or outer side, *2 acyl side, *3 side chain or, on linkers, in order; H or OH if unused. Where a SMILES comes first, the peptide text is derived from it. Bridges are numbered along the chain shown (N, C = ends). [ ]: non-standard residue; d: D form. Benzene(1,3-(CH2SCH2CO)2) = O=C(CSCc1cccc(CSCC(=O)[*:2])c1)[*:1]; X3 = O=C(CSCCCCCCCCSCC(=O)[*:2])[*:1]; X2 = O=C(CSCCCCCCCSCC(=O)[*:2])[*:1]; X4 = O=C(CSCCCCCSCC(=O)[*:2])[*:1]; dDap = NC[C@@H](N)C(=O)O; Dap = NC[C@H](N)C(=O)O

Key:
DLD-1 cells [1] = experiment: 5-day growth inhibition of DLD-1 cancer cells; format: cell-based; conditions: CellTiter Glo
Description: (§1) For growth inhibition by Axin peptides, DLD-1 cells were cultured and maintained as mentioned before. Right before the assay, cells were resuspended in fresh RPMI media supplemented with 10% FBS, 100 IU/mL penicillin, and 100 µg/mL streptomycin, and plated onto 96-well white flat-bottom plates at 1000 cells per well (90 µL media/well). After overnight incubation, peptide samples were serially diluted as 10× stock in PBS buffer (10% DMSO), and were added to the plated cells at 10 µL stock solution/well in triplicate to make final treatment concentrations of 0, 0.0625, 0.125, 0.25, 0.5, 1, 2, 4, 8, 16 µM. The wells on the edges of plates were filled with PBS buffer to avoid unwanted evaporation of samples. The samples on the plates were incubated at 37 °C, 5% CO2 for 5 days, and the cell viability was evaluated by CellTiter Glo (Promega). The luminescence signals were recorded by the H1 synergy plate reader (Biotek) using the Gen5 software, and were normalized against the control groups (100%) for which cells were only treated with the vehicle (PBS/1% DMSO). Control HEK293 cells were cultured in DMEM media supplemented with 10% FBS, 1% penicillin/streptomycin at 37 °C, 5% CO2, then incubated with peptide samples and measured for viability in the same manner as mentioned above. For Axin peptide analogues’ time-dependent cytotoxicity, peptide analogues were mixed with cells (1000 cells per well) at a final concentration of 0, 5, 10, and 15 µM. The cell viabilities were meaured via CellTiter Glo after incubation of 1 day, 2 days, and 4 days, respectively. […] After 24 h of incubation, the cell viabilities were measured and normalized against the vehicle control groups the same as mentioned above.

DLD-1 cells [2] = experiment: Time-dependent cytotoxicity/growth inhibition of Axin peptide analogues; format: cell-based; conditions: 0, 5, 10, 15 µM; after 48 h of incubation; CellTiter Glo
Description: as §1, with “The wells on the edges of plates were filled with PBS buffer to avoid unwanted evaporation of samples.” left out, “above.” for “above. For Axin peptide analogues’ time-dependent cytotoxicity, peptide analogues were mixed with cells (1000 cells per well) at a final concentration of 0, 5, 10, and 15 µM. The cell viabilities were meaured via CellTiter Glo after incubation of 1 day, 2 days, and 4 days, respectively.”

[3] = system: β-catenin mediated transcription; experiment: TOPFlash luciferase reporter assay; format: cell-based; conditions: DLD-1 cells, 15 μM peptide, 24 h
Description: For evaluation of Axin peptide analogues, DLD-1 cells were cultured in 96-well flat bottom plates up to 70–80% confluency and were transfected with 200 ng M50 TOPFlash plasmid (a gift from Professor Raymond Habas, Temple Biology) and 50 ng pRL-TK plasmid (Promega). 12 h after transfection, cells were treated with DMSO vehicle or 15 μM of Axin peptide analogues for another 24 h. Luciferase activity was measured using the Dual-Glo luciferase assay kit (Promega) on a Biotek Synergy H1 plate reader using the Gen5 software. Data were processed as firefly: Renilla luciferase ratio for each control or treatment group, and were further normalized against the vehicle control group (100%) as the Relative Activities.

DLD-1 cells [4] = experiment: Cell viability assay for imaging studies, Axin analogues; format: cell-based; conditions: 10 µM, 12 h incubation, CellTiter-Glo
Description: For Jurkat cells, after imaging studies with SAHBA analogues (5 µM, 4 h of incubation), viabilities were measured by mixing with the CellTiter-Glo reagent and the chemiluminescence signals were recorded and processed the same as metioned above. Similarly, confocal imaging of DLD-1 cells for the penetration pathway studies were followed by viability measurements. Cells treated with vehicle groups were also analysed and counted as the 100% control.

HEK293 cells = experiment: 5-day growth of HEK293 control cells; format: cell-based; conditions: 5 days, CellTiter Glo, up to 16 µM
Description: as §1, with “The wells on the edges of plates were filled with PBS buffer to avoid unwanted evaporation of samples.” left out, “above.” for “above. For Axin peptide analogues’ time-dependent cytotoxicity, peptide analogues were mixed with cells (1000 cells per well) at a final concentration of 0, 5, 10, and 15 µM. The cell viabilities were meaured via CellTiter Glo after incubation of 1 day, 2 days, and 4 days, respectively.”

circular dichroism = conditions: water; pH ns; 25 °C; 70 uM

Structure (SMILES)	helicity (circular dichroism)	further results
CC[C@H](C)[C@@H]1NC(=O)[C@@](C)(NC(=O)[C@H](CCC(N)=O)NC(=O)[C@@H]2CCCN2C(=O)[C@H](Cc2c[nH]c3ccccc23)NC(=O)[C@H](CCCNC(=N)N)NC(=O)COCCOCCNC(=S)Nc2ccc3c(c2)C(=O)OC32c3ccc(O)cc3Oc3cc(O)ccc32)CCC/C=C\CCC[C@@](C)(C(=O)N[C@@H](Cc2c[nH]cn2)C(=O)N[C@H](C(=O)N[C@@H](CCCNC(=N)N)C(=O)N[C@@H](CCCNC(=N)N)C(=O)N[C@H](C(=O)N[C@@H](Cc2c[nH]c3ccccc23)C(=O)N[C@@H](CCCNC(=N)N)C(N)=O)C(C)C)C(C)C)NC(=O)[C@H](CC(=O)O)NC(=O)[C@H](CC(C)C)NC1=O [compound 68, reference compound]	–	concentration at which significant growth inhibition was first displayed (DLD-1 cells [1]; DLD-1, 5 days, highest tested 16 µM): 16 µM
CC[C@H](C)[C@@H]1NC(=O)[C@@H](NC(=O)[C@H](CCC(N)=O)NC(=O)[C@@H]2CCCN2C(=O)[C@H](Cc2c[nH]c3ccccc23)NC(=O)[C@H](CCCNC(=N)N)NC(=O)COCCOCCNC(=S)Nc2ccc3c(c2)C(=O)OC32c3ccc(O)cc3Oc3cc(O)ccc32)CNC(=O)CSCc2cccc(c2)CSCC(=O)NC[C@H](C(=O)N[C@@H](Cc2c[nH]cn2)C(=O)N[C@H](C(=O)N[C@@H](CCCNC(=N)N)C(=O)N[C@@H](CCCNC(=N)N)C(=O)N[C@H](C(=O)N[C@@H](Cc2c[nH]c3ccccc23)C(=O)N[C@@H](CCCNC(=N)N)C(N)=O)C(C)C)C(C)C)NC(=O)[C@H](CC(=O)O)NC(=O)[C@H](CC(C)C)NC1=O [compound 67]	–	EC50 (DLD-1 cells [1]; 5 days, 1000 cells per well, n = 3, read-out: EC50, inhibition of DLD-1 cell growth): 9.8 ± 2 µM; effects on DLD-1 cells over a time course of 24–96 h (DLD-1 cells [2]): significant effects; inhibition of β-catenin mediated transcription (TOPFlash) [3]: strong inhibition; effect on viability of DLD-1 cells (DLD-1 cells [4]): did not affect the viability; effect on growth of HEK293 control cells (HEK293 cells): little effects
CC[C@H](C)[C@@H]1NC(=O)[C@H](NC(=O)[C@H](CCC(=O)O)NC(=O)[C@@H]2CCCN2C(=O)[C@H](CC(N)=O)NC(=O)[C@H](CCC(=O)O)NC(C)=O)CNC(=O)CSCCCCCCCSCC(=O)NC[C@H](C(=O)N[C@@H](Cc2c[nH]cn2)C(=O)N[C@H](C(=O)N[C@@H](CCC(N)=O)C(=O)N[C@@H](CCCNC(=N)N)C(=O)N[C@H](C(=O)N[C@@H](CCSC)C(N)=O)C(C)C)C(C)C)NC(=O)[C@H](CC(=O)O)NC(=O)[C@H](CC(C)C)NC1=O (Ac-ENPE[dDap]ILD[dDap]HVQRVM-NH2; linker 5-9 via X2)	31%	–
CC[C@H](C)[C@@H]1NC(=O)[C@@H](NC(=O)[C@@H](N)CCC(=O)O)CNC(=O)CSCc2cccc(c2)CSCC(=O)NC[C@@H](C(=O)N[C@@H](Cc2c[nH]cn2)C(=O)O)NC(=O)[C@H](CC(=O)O)NC(=O)[C@H](CC(C)C)NC1=O (H-E[Dap]ILD[Dap]H-OH; linker 2-6 via Benzene(1,3-(CH2SCH2CO)2))	41%	–
CC[C@H](C)[C@@H]1NC(=O)[C@@H](NC(=O)[C@H](CCC(=O)O)NC(=O)[C@@H]2CCCN2C(=O)[C@H](CC(N)=O)NC(=O)[C@H](CCC(=O)O)NC(C)=O)CNC(=O)CSCCCCCSCC(=O)NC[C@@H](C(=O)N[C@@H](Cc2c[nH]cn2)C(=O)N[C@H](C(=O)N[C@@H](CCC(N)=O)C(=O)N[C@@H](CCCNC(=N)N)C(=O)N[C@H](C(=O)N[C@@H](CCSC)C(N)=O)C(C)C)C(C)C)NC(=O)[C@H](CC(=O)O)NC(=O)[C@H](CC(C)C)NC1=O (Ac-ENPE[Dap]ILD[Dap]HVQRVM-NH2; linker 5-9 via X4)	24%	–
CC(=O)N[C@@H](CCC(N)=O)C(=O)N[C@@H](CO)C(=O)N[C@@H](CCC(N)=O)C(=O)N[C@@H](CCC(N)=O)C(=O)N[C@H](C(=O)N[C@@H](Cc1ccccc1)C(=O)N[C@H]1CNC(=O)CSCCCCCCCSCC(=O)NC[C@@H](C(=O)N[C@@H](CCC(N)=O)C(=O)N[C@@H](CC(N)=O)C(N)=O)NC(=O)[C@H](CC(C)C)NC(=O)[C@H](CC(C)C)NC(=O)[C@H](CCCNC(=N)N)NC(=O)[C@H](Cc2c[nH]c3ccccc23)NC(=O)[C@H](CC(C)C)NC(=O)[C@H](CC(N)=O)NC1=O)[C@@H](C)O	36%	–
CC[C@H](C)[C@@H]1NC(=O)[C@@H](NC(=O)[C@H](CCC(=O)O)NC(=O)[C@@H]2CCCN2C(=O)[C@H](CC(N)=O)NC(=O)[C@H](CCC(=O)O)NC(C)=O)CNC(=O)CSCCCCCCCCSCC(=O)NC[C@H](C(=O)N[C@@H](Cc2c[nH]cn2)C(=O)N[C@H](C(=O)N[C@@H](CCC(N)=O)C(=O)N[C@@H](CCCNC(=N)N)C(=O)N[C@H](C(=O)N[C@@H](CCSC)C(N)=O)C(C)C)C(C)C)NC(=O)[C@H](CC(=O)O)NC(=O)[C@H](CC(C)C)NC1=O (Ac-ENPE[Dap]ILD[dDap]HVQRVM-NH2; linker 5-9 via X3)	14%	–
CC[C@H](C)[C@@H]1NC(=O)[C@H](NC(=O)[C@H](CCC(=O)O)NC(=O)[C@@H]2CCCN2C(=O)[C@H](CC(N)=O)NC(=O)[C@H](CCC(=O)O)NC(C)=O)CNC(=O)CSCc2ccc(cc2)CSCC(=O)NC[C@H](C(=O)N[C@@H](Cc2c[nH]cn2)C(=O)N[C@H](C(=O)N[C@@H](CCC(N)=O)C(=O)N[C@@H](CCCNC(=N)N)C(=O)N[C@H](C(=O)N[C@@H](CCSC)C(N)=O)C(C)C)C(C)C)NC(=O)[C@H](CC(=O)O)NC(=O)[C@H](CC(C)C)NC1=O	19%	–
CC[C@H](C)[C@@H]1NC(=O)[C@H](NC(=O)[C@@H](N)CCC(=O)O)CNC(=O)CSCc2cccc(c2)CSCC(=O)NC[C@@H](C(=O)N[C@@H](Cc2c[nH]cn2)C(=O)O)NC(=O)[C@H](CC(=O)O)NC(=O)[C@H](CC(C)C)NC1=O (H-E[dDap]ILD[Dap]H-OH; linker 2-6 via Benzene(1,3-(CH2SCH2CO)2))	13%	–
CC[C@H](C)[C@@H]1NC(=O)[C@H](NC(=O)[C@H](CCC(=O)O)NC(=O)[C@@H]2CCCN2C(=O)[C@H](CC(N)=O)NC(=O)[C@H](CCC(=O)O)NC(C)=O)CNC(=O)CSCCCCCCCCSCC(=O)NC[C@H](C(=O)N[C@@H](Cc2c[nH]cn2)C(=O)N[C@H](C(=O)N[C@@H](CCC(N)=O)C(=O)N[C@@H](CCCNC(=N)N)C(=O)N[C@H](C(=O)N[C@@H](CCSC)C(N)=O)C(C)C)C(C)C)NC(=O)[C@H](CC(=O)O)NC(=O)[C@H](CC(C)C)NC1=O (Ac-ENPE[dDap]ILD[dDap]HVQRVM-NH2; linker 5-9 via X3)	25%	–
CC[C@H](C)[C@@H]1NC(=O)[C@@H](NC(=O)[C@H](CCC(=O)O)NC(=O)[C@@H]2CCCN2C(=O)[C@H](CC(N)=O)NC(=O)[C@H](CCC(=O)O)NC(C)=O)CNC(=O)CSCCCCCCCCSCC(=O)NC[C@@H](C(=O)N[C@@H](Cc2c[nH]cn2)C(=O)N[C@H](C(=O)N[C@@H](CCC(N)=O)C(=O)N[C@@H](CCCNC(=N)N)C(=O)N[C@H](C(=O)N[C@@H](CCSC)C(N)=O)C(C)C)C(C)C)NC(=O)[C@H](CC(=O)O)NC(=O)[C@H](CC(C)C)NC1=O (Ac-ENPE[Dap]ILD[Dap]HVQRVM-NH2; linker 5-9 via X3)	25%	–
CC[C@H](C)[C@@H]1NC(=O)[C@@H](NC(=O)[C@H](CCC(=O)O)NC(=O)[C@@H]2CCCN2C(=O)[C@H](CC(N)=O)NC(=O)[C@H](CCC(=O)O)NC(C)=O)CNC(=O)CSCCCCCCCSCC(=O)NC[C@H](C(=O)N[C@@H](Cc2c[nH]cn2)C(=O)N[C@H](C(=O)N[C@@H](CCC(N)=O)C(=O)N[C@@H](CCCNC(=N)N)C(=O)N[C@H](C(=O)N[C@@H](CCSC)C(N)=O)C(C)C)C(C)C)NC(=O)[C@H](CC(=O)O)NC(=O)[C@H](CC(C)C)NC1=O (Ac-ENPE[Dap]ILD[dDap]HVQRVM-NH2; linker 5-9 via X2)	25%	–
